Experimental data as given in US20170325479A1.

What was measured:
[1] = target: T1, beta-casein tryptic peptide HKEMPFPK
T1 chain: HKEMPFPK

[2] = target: T2, H-AAPPA-NH2
T2 chain: AAPPA

[3] = target: T3, beta-lactoglobulin peptide IIAEK
T3 chain: IIAEK

[4] = target: T4, beta-lactoglobulin peptide VYVEELKPTPEGDLEILLQK
T4 chain: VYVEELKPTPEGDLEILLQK

[5] = target: T5, beta-casein tryptic peptide GPFPIIV
T5 chain: GPFPIIV

[6] = target: Bradykinin
[7] = target: T6, 33-mer of gliadin (alpha-2-gliadin) (aa56-88)
T6 chain: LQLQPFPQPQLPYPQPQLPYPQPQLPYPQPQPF

B1: proline tolerant tripeptidyl peptidase TRI083 (protein)
chain: QEPSSCKGTLVFEGETFNVFQPDCLRTEYSVDGYTPSVKSGSRIGFGSFLNESASFADQALFEKHFNIPSQNFSVVLINGGTDLPQPPSDANDGEANLDAQTILTIAHPLPITEFITAGSPPYFPDPVEPAGTPNENEPYLQYYEFLLSKSNAEIPQVITNSYGDEEQTVPRSYAVRVCNLIGLLGLRGISVLHSSGDEGVGASCVATNSTTPQFNPIFPATCPYVTSVGGTVSFNPEVAWAGSSGGFSYYFSRPWYQQEAVGTYLEKYVSAETKKYYGPYVDFSGRGFPDVAAHSVSPDYPVFQGGELTPSGGTSAASPVVAAIVALLNDARLREGKPTLGFLNPLIYLHASKGFTDITSGQSEGCNGNNTQTGSPLPGAGFIAGAHWNATKGWDPTTGFGVPNLKKLLALVRF
With B1 the “digestion measured with LC-MS” value [1] was “the peptide HKEMPFPK is also efficiently digested by the proline tolerant tripeptidyl peptidase”, the “hydrolysis of substrate followed by LC-MS and label free quantification” value [2] was “proline tolerant tripeptidyl peptidase over time is able to degrade the peptide AAPPA (FIG. 5) and generate the product AAP (FIG. 6)” and the “digestion measured with LC-MS” value [3] was “shows the digestion of a fragment of β-lactoglobulin (peptide IIAEK) by a proline tolerant tripeptidyl peptidase”. The “digestion measured with LC-MS” value [4] was “shows the digestion of a fragment of β-lactoglobulin (peptide VYVEELKPTPEGDLEILLQK) by a proline tolerant tripeptidyl peptidase”, the “digestion measured with LC-MS” value [5] was “the proline tolerant tripeptidyl peptidase is able to efficiently digest this peptide with proline in the P1′ position and in the P2 position” and the “digestion measured with LC-MS” value [6] was “The proline tolerant tripeptidyl peptidase efficiently digests the bradykinin peptide having the amino acid sequence RPPGFSPFR (see FIG. 24)”. For the same protein, the Relative MS peak intensities of alpha-2-gliadin (intact substrate), 0 min (relative MS peak intensity) [7] was 100, the Relative MS peak intensities of alpha-2-gliadin (intact substrate), 1 min (relative MS peak intensity) [7] was 10 and the Relative MS peak intensities of alpha-2-gliadin (intact substrate), 3 min (relative MS peak intensity) [7] was 0. It also gave a Relative MS peak intensities of alpha-2-gliadin (intact substrate), 5 min (relative MS peak intensity) [7] of 0, a Relative MS peak intensities of alpha-2-gliadin (intact substrate), 10 min (relative MS peak intensity) [7] of 0 and a Relative MS peak intensities of alpha-2-gliadin (intact substrate), 15 min (relative MS peak intensity) [7] of 0. The Relative MS peak intensities of alpha-2-gliadin (intact substrate), 30 min (relative MS peak intensity) [7] was 0 and the “hydrolysis of substrate followed by LC-MS” value [7] was “proline tolerant tripeptidyl peptidase was found to cleave the substrate alpha-2-gliadin consecutively into tri-peptides irrespective of a high proline content”.
